{"source": "paper doi:10.1101/2025.11.02.686180", "key": {"thrombin (Tb) [1]": {"molecular_target": "T1, thrombin (Tb) (UniProt P00734;P00734 328-363;364-622)", "test": "thrombin 0.02-20 pg/mL in water"}, "[2]": {"molecular_target": "T2, Tau441 (longest isoform of tau) (human, UniProt P10636-8 1-441)", "test": "competition"}, "[3]": {"molecular_target": "T3, SARS-CoV-2 nucleocapsid protein (NP) (SARS-CoV-2, UniProt P0DTC9 1-419)", "test": "MST"}, "thrombin (Tb) [4]": {"molecular_target": "T1, thrombin (Tb)", "test": "0.1 ng/mL thrombin"}, "[5]": {"molecular_target": "T3, SARS-CoV-2 nucleocapsid protein (NP)", "test": "MST", "remark": "listed apart in the source"}, "[6]": {"molecular_target": "T2, Tau441 (longest isoform of tau)", "test": "competition", "remark": "listed apart in the source"}}, "note": "Where two headings read alike, the source gives them in different places.", "data": [{"binder": "AGTCCGTGGTAGGGCAGGTTGGGGTGACT (ssDNA, 3' C3 spacer)", "note": "[thrombin aptamer 29 nt]", "values": [{"measurement": "binding result", "setting": "thrombin (Tb) [1]", "result": "binds"}]}, {"binder": "CGCTTACGACAATATTCCTTAGGGGCACCGCTACATTGACACATCCAGC (ssDNA, 3' C3 spacer)", "note": "[N9-Apt]", "values": [{"measurement": "binding result", "setting": "[2]", "result": "no binding"}, {"measurement": "binding signal", "setting": "[3]", "result": "> 5", "unit": "fold affinity vs Nor-Apt"}, {"measurement": "binding result", "setting": "thrombin (Tb) [4]", "result": "no binding"}]}, {"binder": "Nor-Apt (ssDNA, 3' C3 spacer) DNA: GCTGGATGTCGCTTACGACAATATTCCTTAGGGGCACCGCTACATTGACACATCCAGC", "values": [{"measurement": "binding result", "setting": "[5]", "result": "binds"}]}, {"binder": "CCTGTCAGGTCTTTGACGAGGCTTTTCTTC (ssDNA, 3' C3 spacer)", "note": "[Tau aptamer (core)]", "values": [{"measurement": "binding result", "setting": "[6]", "result": "binds"}]}]}
